Laboratory results from patent publication US7078174B1, “Screening methods using SOCS box-containing peptides” (The Walter & Eliza Hall Institute of Medical Research, priority 1998, dated 2006).
Blank lines part the entries; values can stand above or below the molecule they belong to.

Tests used:
[1] = tested on: elongin B, elongin C, cullin 2, JAK1, gp130; experiment: Analysis of proteins interacting with SOCS-1 in unstimulated M1 cells (anti-FLAG affinity column, Western blot); format: binding, murine; conditions: 10^9 unstimulated M1 cells, anti-FLAG affinity column eluate
Description: The inventors passed lysates from 10^9 unstimulated M1 cells expressing FLAG-tagged SOCS-1 through an anti-FLAG affinity column which was then eluted with FLAG peptide. The eluate was then subjected to SDS-PAGE and the proteins were Western blotted. The blot was then probed with anti-FLAG antibodies to confirm the presence of SOCS-1 and with a range of antibodies against proteins thought to interact with SOCS-1 (FIG. 7). […] To determine whether proteins in this complex interact directly or indirectly with SOCS-1, or whether all the proteins can be found together in a single complex, or whether separate complexes are, for example, formed between SOCS-1, JAK-1 and gp130 on one hand and between SOCS-1, elongin B and C and cullin-2, is addressed in part by performing the primary immunoprecipitation using a different antibody.
Further, the nature of the complex is analyzed by repeating experiments using a mutant SOCS protein which lacks one or more domains. In the case described above, the inventors have performed an identical analysis using M1 cells expressing a FLAG-tagged mutant of SOCS-1 lacking the SOCS box. […] This type of experiment addresses whether interactions are direct or indirect. Further analysis involves approaches of the type described below.

[2] = target: T1, endogenous elongins B and C (Mus musculus, UniProt P62869+P83940); experiment: Interaction of FLAG-tagged SOCS-1 with endogenous elongins in M1 cells (anti-FLAG resin, Western blot); format: binding, murine; conditions: M1 cells stably expressing FLAG-tagged protein, anti-FLAG immunoprecipitation
T1 construct: endogenous in cells; host or cells: M1 murine monocytic leukemic cells
T1 sequence (P83940 whole entry): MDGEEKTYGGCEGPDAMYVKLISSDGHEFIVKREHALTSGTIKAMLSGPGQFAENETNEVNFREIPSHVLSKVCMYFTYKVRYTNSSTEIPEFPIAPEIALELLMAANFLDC
T1 sequence (P62869 whole entry): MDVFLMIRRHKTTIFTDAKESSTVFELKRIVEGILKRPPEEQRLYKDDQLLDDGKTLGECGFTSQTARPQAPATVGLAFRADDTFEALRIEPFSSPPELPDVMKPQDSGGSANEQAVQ
Description: Two liters of M1 cells stably expressing either full-length SOCS-1 or SOCS-1 lacking SOCS box (with N-terminal FLAG epitopes) were grown in DME containing 5% bovine calf serum, 10 μg/ml puromycin and 50 ng/ml murine IL-6. The cells were harvested and incubated in 20 ml of culture media containing 10 μM proteasome-specific inhibitor, N-acetyl-L-leucinyl-L-leucinyl-norleucinal (LLnL; Sigma, St. Louis, Mo.) for 30 min at 37° C. The cells were lysed in 14 ml of lysis buffer supplemented with protease inhibitors (Complete Cocktail tablets), 1 mM PMSF, 1 mM Na3VO4, 1 mM NaF and 10 μM LLnL. Total cell lysates were centrifuged at 15,000 rpm (SS34 rotor) for 15 min at 4° C. and the clarified supernatants incubated with 0.3 ml of M2 anti-FLAG antibody resin for 3 h at 4° C. Resin was then washed with 10 ml of lysis buffer and the bound proteins were eluted with 6×150 μl of 100 μg/m FLAG peptide in lysis buffer.
(§1) Proteins were immunoprecipitated with anti-myc (9E10; WEHI) and protein A-Sepharose or anti-FLAG antibody conjugated to Sepharose (KM5-IC7; WEHI) and separated by sodium dodecyl sulphate-polyacrylamide gel electrophoresis (SDS-PAGE) (Biorad, Hercules, Calif.) under reducing conditions. Proteins were then electrophoretically transferred to PVDF-Plus membranes (Micron Separations Inc. WestBorough, Mass.) and Western blotted as described (8).

[3] = target: T2, elongins B and C (Mus musculus, UniProt P62869+P83940); experiment: Co-transfection of 293T cells with SOCS box proteins and elongins B and C, co-immunoprecipitation; format: binding; conditions: anti-myc immunoprecipitation, anti-FLAG Western blot
T2 construct: expressed in transfected cells; host or cells: 293T human fibroblast cell line, vector pEF-BOS
T2 sequence (P83940 whole entry): as the sequence (P83940 whole entry) above
T2 sequence (P62869 whole entry): as the sequence (P62869 whole entry) above
Description: The cDNAs encoding mouse SOCS-1, SOCS-3, WSB-1, SSB-1, ASB-1, have been described previously (1,8). Constructs in pEF-FLAG1 encoding these proteins, with or without the SOCS box, with an N-terminal FLAG epitope tag (DYKDDDDK) (SEQ ID NO:1) were generated by PCR essentially as described (8) (found at http://www.wehi.edu.au/willson vectors). DNA fragments encoding mouse elongins B and C were amplified using PCR from a 17-day embryo cDNA lambda library (Clontech ML5014t) and were expressed with N-terminal FLAG or myc (DQKLISEEDL) (SEQ ID NO:2) epitope tags, respectively, using the mammalian expression vector pEF-BOS.
The murine monocytic leukemic cell line, M1, and the 293T human fibroblast cell line were maintained and transfected as described (8).
as §1

association with endogenous elongins B and C [2]: associated with bound elongins B and C
B1: full-length SOCS-1: N-terminally FLAG-tagged full-length mouse SOCS-1 stably expressed in M1 cells (protein)
chain: DYKDDDDKMVARNQVAADNAISPAAEPRRRSEPSSSSSSSSPAAPVRPRPCPAVPAPAPGDTHFRTFRSHSDYRRITRTSALLDACGFYWGPLSVHGAHERLRAEPVGTFLVRDSRQRNCFFALSVKMASGPTSIRVHFQAGRFHLDGSRETFDCLFELLEHYVAAPRRMLGAPLRQRRVRPLQELCRQRIVAAVGRENLARIPLNPVLRDYLSSFPFQI
complex formation with elongin B, elongin C, cullin 2, JAK1 and gp130 [1]: capable of forming a complex with elongin B and elongin C, cullin 2, as well as JAK1 and gp130

B2: WSB-2: N-terminally FLAG-tagged WSB-2 protein transfected into 293T fibroblasts (protein)
chain: DYKDDDDKMEAGEEPLLLAELKPGRPHQFDWKSSCETWSVAFSPDGSWFAWSQGHCVVKLVPWPLEEQFIPKGFEAKSRSSKNDPKGRGSLKEKTLDCGQIVWGLAFSPWPSPPSRKLWARHHPQAPDVSCLILATGLNDGQIKIWEVQTGLLLLNLSGHQDVVRDLSFTPSGSLILVSASRDKTLRIWDLNKHGKQIQVLSGHLQWVYCCSISPDCSMLCSAAGEKSVFLWSMRSYTLIRKLEGHQSSVVSCDFSPDSALLVTASYDTSVIMWDPYTGERLRSLHHTQLEPTMDDSDVHMSSLRSVCFSPEGLYLATVADDRLLRIWALELKAPVAFAPMTNGLCCTFFPHGGIIATGTRDGHVQFWTAPRVLSSLKHLCRKALRSFLTTYQVLALPIPKKMKEFLTYRTF
co-immunoprecipitation with elongin C (and elongin B) [3]: found to co-immunoprecipitate along with elongin B with elongin C

B3: SSB-1: N-terminally FLAG-tagged SSB-1 protein transfected into 293T fibroblasts (protein)
chain: DYKDDDDKMGQKVTGGIKTVDMRDPTYRPLKQELQGLDYCKPTRLDLLLDMPPVSYDVQLLHSWNNNDRSLNVFVKEDDKLIFHRHPVAQSTDAIRGKVGYTRGLHVWQITWAMRQRGTHAVVGVATADAPLHSVGYTTLVGNNHESWGWDLGRNRLYHDGKNQPSKTYPAFLEPDETFIVPDSFLVALDMDDGTLSFIVDGQYMGVAFRGLKGKKLYPVVSAVWGHCEIRMRYLNGLDPEPLPLMDLCRRSVRLALGKERLGAIPALPLPASLKAYLLYQ
co-immunoprecipitation with elongin C (and elongin B) [3]: found to co-immunoprecipitate along with elongin B with elongin C
